B1: FBXO39 (parent)
chain: RVFKARIYTNRYETNEEDKTLQEI
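Also: lentivirally expressed fusions sorted by FACS into six bins by GFP to DsRed ratio, PSI derived from sequencing read proportions per bin multiplied by bin number.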

This series covers variants of B1. The experiment in a line: protein stability index of a GFP-peptide fusion (GPS, HEK-293T) (PSI 1-6); higher = more stable. The settings on record: c terminus: a fixed tail appended.
RVFKARIYTNRYETNEEDKTLQTI [E23T]: the protein stability index was determined as 2.44.

On to RVFKARIYTNRYETNEEDKTLQPI [E23P], for which the protein stability index came out at 2.39.

On to RVFKARIYTNRYETNEEDKTLQQI [E23Q], for which the protein stability index stood at 2.21.

As for RVFKARIYTNRYETNEEDKTLQKI [E23K], the protein stability index is 2.74.

For the variant RVFKARIYTNRYETNEEDKTLQHI [E23H], the protein stability index worked out at 2.74.

As for RVFKARIYTNRYETNEEDKTLQMI [E23M], the protein stability index worked out at 2.14.

As to RVFKARIYTNRYETNEEDKTLQWI [E23W], the protein stability index was determined as 1.74.

Regarding RVFKARIYTNRYETNEEDKTLQDI [E23D], the protein stability index turned out to be 2.58.

Consider RVFKARIYTNRYETNEEDKTLQGI [E23G], for which the protein stability index came to 2.19.

Take RVFKARIYTNRYETNEEDKTLQCI [E23C]: the protein stability index was found to be 2.13.

Regarding RVFKARIYTNRYETNEEDKTLQVI [E23V], the protein stability index came out at 2.41.

For RVFKARIYTNRYETNEEDKTLQSI [E23S], the protein stability index came to 2.32.

RVFKARIYTNRYETNEEDKTLQYI [E23Y]: the protein stability index was 2.14.

With RVFKARIYTNRYETNEEDKTLQFI [E23F], the protein stability index was found to be 1.93.

On to RVFKARIYTNRYETNEEDKTLQNI [E23N], for which the protein stability index worked out at 2.15.

As to RVFKARIYTNRYETNEEDKTLQRI [E23R], the protein stability index worked out at 2.05.

As for RVFKARIYTNRYETNEEDKTLQLI [E23L], the protein stability index was determined as 2.42.

On to RVFKARIYTNRYETNEEDKTLQII [E23I], for which the protein stability index came to 1.88.

RVFKARIYTNRYETNEEDKTLQEP [I24P]: the protein stability index is 3.21.

For the variant RVFKARIYTNRYETNEEDKTLQEM [I24M], the protein stability index was 2.25.

With RVFKARIYTNRYETNEEDKTLQEV [I24V], the protein stability index is 3.44.

On to RVFKARIYTNRYETNEEDKTLQEE [I24E], for which the protein stability index worked out at 3.48.

Take RVFKARIYTNRYETNEEDKTLQEH [I24H]: the protein stability index turned out to be 3.7.

With RVFKARIYTNRYETNEEDKTLQEF [I24F], the protein stability index came out at 2.55.

As for RVFKARIYTNRYETNEEDKTLQEK [I24K], the protein stability index came to 2.98.

In the case of RVFKARIYTNRYETNEEDKTLQEY [I24Y], the protein stability index amounted to 3.17.

For RVFKARIYTNRYETNEEDKTLQER [I24R], the protein stability index was 3.22.

As for RVFKARIYTNRYETNEEDKTLQEQ [I24Q], the protein stability index came to 3.32.

Take RVFKARIYTNRYETNEEDKTLQEC [I24C]: the protein stability index was found to be 2.61.

As to RVFKARIYTNRYETNEEDKTLQET [I24T], the protein stability index is 2.75.

Regarding RVFKARIYTNRYETNEEDKTLQED [I24D], the protein stability index turned out to be 3.26.

As for RVFKARIYTNRYETNEEDKTLQEW [I24W], the protein stability index came to 2.34.

For the variant RVFKARIYTNRYETNEEDKTLQES [I24S], the protein stability index turned out to be 3.36.

On to RVFKARIYTNRYETNEEDKTLQEN [I24N], for which the protein stability index stood at 2.64.

As to RVFKARIYTNRYETNEEDKDLQEI [T20D], the protein stability index came to 3.48.

As for RVFKARIYTNRYETNEEDKILQEI [T20I], the protein stability index stood at 1.76.

With RVFKARIYTNRYETNEEDKSLQEI [T20S], the protein stability index stood at 3.2.

In the case of RVFKARIYTNRYETNEEDKRLQEI [T20R], the protein stability index is 2.77.

Consider RVFKARIYTNRYETNEEDKMLQEI [T20M], for which the protein stability index amounted to 3.06.

Consider RVFKARIYTNRYETNEEDKWLQEI [T20W], for which the protein stability index stood at 2.49.

Consider RVFKARIYTNRYETNEEDKVLQEI [T20V], for which the protein stability index is 3.47.

Turning to RVFKARIYTNRYETNEEDKNLQEI [T20N], the protein stability index was found to be 2.57.

As to RVFKARIYTNRYETNEEDKLLQEI [T20L], the protein stability index is 2.38.

For RVFKARIYTNRYETNEEDKPLQEI [T20P], the protein stability index was 2.73.

Consider RVFKARIYTNRYETNEEDKYLQEI [T20Y], for which the protein stability index was 2.17.

For RVFKARIYTNRYETNEEDKELQEI [T20E], the protein stability index stood at 2.53.

As for RVFKARIYTNRYETNEEDKGLQEI [T20G], the protein stability index turned out to be 1.79.

Turning to RVFKARIYTNRYETNEEDKQLQEI [T20Q], the protein stability index was 2.78.

With RVFKARIYTNRYETNEEDKKLQEI [T20K], the protein stability index was determined as 2.53.

For RVFKARIYTNRYETNEEDKALQEI [T20A], the protein stability index came out at 2.87.

For the variant RVFKARIYTNRYETNEEDKFLQEI [T20F], the protein stability index is 2.74.

Regarding RVFKARIYTNRYETNEEDKCLQEI [T20C], the protein stability index is 2.55.

Consider RVFKARIYTNRYETNEEDKTFQEI [L21F], for which the protein stability index amounted to 2.52.

Consider RVFKARIYTNRYETNEEDKTQQEI [L21Q], for which the protein stability index is 3.18.

As to RVFKARIYTNRYETNEEDKTWQEI [L21W], the protein stability index is 2.5.

Turning to RVFKARIYTNRYETNEEDKTYQEI [L21Y], the protein stability index was determined as 1.99.

As for RVFKARIYTNRYETNEEDKTGQEI [L21G], the protein stability index was determined as 3.2.

In the case of RVFKARIYTNRYETNEEDKTAQEI [L21A], the protein stability index was 2.9.

For RVFKARIYTNRYETNEEDKTSQEI [L21S], the protein stability index came out at 2.93.

For the variant RVFKARIYTNRYETNEEDKTPQEI [L21P], the protein stability index is 3.27.

Take RVFKARIYTNRYETNEEDKTCQEI [L21C]: the protein stability index was determined as 2.21.

In the case of RVFKARIYTNRYETNEEDKTRQEI [L21R], the protein stability index was determined as 2.97.

For RVFKARIYTNRYETNEEDKTTQEI [L21T], the protein stability index stood at 2.97.

Take RVFKARIYTNRYETNEEDKTKQEI [L21K]: the protein stability index was found to be 2.5.

Consider RVFKARIYTNRYETNEEDKTHQEI [L21H], for which the protein stability index stood at 3.76.

With RVFKARIYTNRYETNEEDKTIQEI [L21I], the protein stability index came out at 2.62.

For the variant RVFKARIYTNRYETNEEDKTDQEI [L21D], the protein stability index was 3.88.

Consider RVFKARIYTNRYETNEEDKTEQEI [L21E], for which the protein stability index amounted to 3.38.

For the variant RVFKARIYTNRYETNEEDKTVQEI [L21V], the protein stability index was found to be 2.86.

Take RVFKARIYTNRYETNEEDKTMQEI [L21M]: the protein stability index turned out to be 3.24.

As to RVFKARIYTNRYETNEEDKTNQEI [L21N], the protein stability index is 3.26.

Consider RVFKARIYTNRYETNEEDKTLVEI [Q22V], for which the protein stability index was determined as 1.75.

Regarding RVFKARIYTNRYETNEEDKTLWEI [Q22W], the protein stability index stood at 1.79.

Take RVFKARIYTNRYETNEEDKTLKEI [Q22K]: the protein stability index turned out to be 2.38.

Consider RVFKARIYTNRYETNEEDKTLGEI [Q22G], for which the protein stability index was found to be 3.19.

As for RVFKARIYTNRYETNEEDKTLSEI [Q22S], the protein stability index is 1.12.

RVFKARIYTNRYETNEEDKTLFEI [Q22F]: the protein stability index worked out at 1.76.

In the case of RVFKARIYTNRYETNEEDKTLREI [Q22R], the protein stability index is 2.91.

Regarding RVFKARIYTNRYETNEEDKTLMEI [Q22M], the protein stability index was 2.5.

For the variant RVFKARIYTNRYETNEEDKTLCEI [Q22C], the protein stability index amounted to 3.48.

As for RVFKARIYTNRYETNEEDKTLHEI [Q22H], the protein stability index turned out to be 1.64.

On to RVFKARIYTNRYETNEEDKTLTEI [Q22T], for which the protein stability index was 1.98.

Turning to RVFKARIYTNRYETNEEDKTLDEI [Q22D], the protein stability index stood at 3.

For the variant RVFKARIYTNRYETNEEDKTLLEI [Q22L], the protein stability index turned out to be 2.33.

For the variant RVFKARIYTNRYETNEEDKTLIEI [Q22I], the protein stability index came to 1.4.

In the case of RVFKARIYTNRYETNEEDKTLYEI [Q22Y], the protein stability index was 2.6.

As to RVFKARIYTNRYETNEEDKTLNEI [Q22N], the protein stability index amounted to 2.49.

Turning to RVFKARIYTNRYETNEEDKTLAEI [Q22A], the protein stability index stood at 3.02.

For the variant RVFKARIYTNRYETNEEDTTLQEI [K19T], the protein stability index was found to be 2.79.

Regarding RVFKARIYTNRYETNEEDVTLQEI [K19V], the protein stability index turned out to be 2.62.

Turning to RVFKARIYTNRYETNEEDPTLQEI [K19P], the protein stability index was 2.91.

On to RVFKARIYTNRYETNEEDWTLQEI [K19W], for which the protein stability index was found to be 2.54.

For the variant RVFKARIYTNRYETNEEDSTLQEI [K19S], the protein stability index was found to be 3.39.

Regarding RVFKARIYTNRYETNEEDYTLQEI [K19Y], the protein stability index was found to be 2.57.

Values taken from the supplement of paper PMC10567573.
